Results from publication PMC8277574 (2021).

B1: human MUSK full-length extracellular region (E22 to T495), Avi-His6, biotinylated (domain or fragment)
chain: EKLPKAPVITTPLETVDALVEEVATFMCAVESYPQPEISWTRNKILIKLFDTRYSIRENGQLLTILSVEDSDDGIYCCTANNGVGGAVESCGALQVKMKPKITRPPINVKIIEGLKAVLPCTTMGNPKPSVSWIKGDSPLRENSRIAVLESGSLRIHNVQKEDAGQYRCVAKNSLGTAYSKVVKLEVEVFARILRAPESHNVTFGSFVTLHCTATGIPVPTITWIENGNAVSSGSIQESVKDRVIDSRLQLFITKPGLYTCIATNKHGEKFSTAKAAATISIAEWSKPQKDNKGYCAQYRGEVCNAVLAKDALVFLNTSYADPEEAQELLVHTAWNELKVVSPVCRPAAEALLCNHIFQECSPGVVPTPIPICREYCLAVKELFCAKEWLVMEEKTHRGLYRSEMHLLSVPECSKLPSMHWDPTACARLPHLDYNKENLKTFPPMTSSKPSVDIPNLPSSSSSSFSVSPTYSMT
modifications: biotin (on the Avi tag, BirA in vitro)
B2: mouse MUSK full-length extracellular region (E22 to T494), Avi-His6, biotinylated (domain or fragment)
chain: EKLPKAPVITTPLETVDALVEEVATFMCAVESYPQPEISWTRNKILIKLFDTRYSIRENGQLLTILSVEDSDDGIYCCIANNGVGGAVESCGALQVKMKPKITRPPINVKIIEGLKAVLPCTTMGNPKPSVSWIKGDNALRENSRIAVLESGSLRIHNVQKEDAGQYRCVAKNSLGTAYSKLVKLEVEVFARILRAPESHNVTFGSFVTLRCTAIGIPVPTISWIENGNAVSSGSIQESVKDRVIDSRLQLFITKPGLYTCIATNKHGEKFSTAKAAATVSIAEWSKSQKDSQGYCAQYRGEVCDAVLAKDALVFFNTSYRDPEDAQELLIHTAWNELKAVSPLCRPAAEALLCNHLFQECSPGVVPTPMPICREYCLAVKELFCAKEWQAMEGKAHRGLYRSGMHLLPVPECSKLPSMHRDPTACTRLPYLDYKKENITTFPSITSSRPSADIPNLPASTSSFAVSPAYSMT
modifications: biotin (on the Avi tag, BirA in vitro)
B3: mouse MUSK Fz domain and C-terminal flanking sequence (D307 to T494), Avi-His6, biotinylated (domain or fragment)
chain: DSQGYCAQYRGEVCDAVLAKDALVFFNTSYRDPEDAQELLIHTAWNELKAVSPLCRPAAEALLCNHLFQECSPGVVPTPMPICREYCLAVKELFCAKEWQAMEGKAHRGLYRSGMHLLPVPECSKLPSMHRDPTACTRLPYLDYKKENITTFPSITSSRPSADIPNLPASTSSFAVSPAYSMT
modifications: biotin (on the Avi tag, BirA in vitro)
B4: human MUSK Fz domain and C-terminal flanking sequence (K314 to T495), Avi-His6, biotinylated (domain or fragment)
chain: KGYCAQYRGEVCNAVLAKDALVFLNTSYADPEEAQELLVHTAWNELKVVSPVCRPAAEALLCNHIFQECSPGVVPTPIPICREYCLAVKELFCAKEWLVMEEKTHRGLYRSEMHLLSVPECSKLPSMHWDPTACARLPHLDYNKENLKTFPPMTSSKPSVDIPNLPSSSSSSFSVSPTYSMT
modifications: biotin (on the Avi tag, BirA in vitro)
B5: MUSK agonist antibody X17, mouse IgG2a-LALAPG format (antibody, V domains shown)
VH: EVQLVESGGGLVQPGGSLRLSCAASGFTISYSSIHWVRQAPGKGLEWVASIYSSSGSTYYADSVKGRFTISADTSKNTAYLQMNSLRAEDTAVYYCARGDHGYYVFGYLGMDYWGQGTLVTVSS
VL: DIQMTQSPSSLSASVGDRVTITCRASQSVSSAVAWYQQKPGKAPKLLIYSASSLYSGVPSRFSGSRSGTDFTLTISSLQPEDFATYYCQQSYKPGALITFGQGTKVEIK

Legend:
Experiment in all cases: FACS
X3 hIgG = molecular target: X3 hIgG
X2 hIgG = molecular target: X2 hIgG
X17 hIgG = molecular target: X17 hIgG
X3 mIgG = molecular target: X3 mIgG
[1] = molecular target: B2
[2] = molecular target: B3
[3] = molecular target: B4
[4] = molecular target: B1

B1
Kd (X3 hIgG): 0.074 nM | Kd (X2 hIgG): 0.478 nM | Kd (X17 hIgG): 0.86 nM | Kd (X3 mIgG): 0.113 nM

B2
Kd (X3 hIgG): 0.079 nM | Kd (X2 hIgG): 0.307 nM | Kd (X17 hIgG): 1.04 nM | Kd (X3 mIgG): 0.118 nM

B3
Kd (X3 hIgG): 0.07 nM | Kd (X2 hIgG): 0.265 nM | Kd (X17 hIgG): 0.68 nM | Kd (X3 mIgG): 0.096 nM

B4
Kd (X3 hIgG): 0.057 nM | Kd (X2 hIgG): 0.421 nM | Kd (X17 hIgG): 0.56 nM | Kd (X3 mIgG): 0.079 nM

B5
Kd [1]: 1.1 nM | Kd [2]: 0.74 nM | Kd [3]: 0.61 nM | Kd [4]: 0.97 nM
